Laboratory results from article PMC6859894 (Nature, 2019).
Like-named read-outs stand apart in the source and are kept apart here.

Experiments:
[1] = target: the molecule itself; assay: cryo-EM structure
[2] = target: the molecule itself; assay: cryo-EM structure; remark: listed apart in the source

B1: chicken STING (Gallus gallus), full-length, C-terminal Flag tag (natural protein, chicken (Gallus gallus), UniProt E1C7U0 1-379, looked up)
chain: MPQDPSTRSSPARLLIPEPRAGRARHAACVLLAVCFVVLFLSGEPLAPIIRSVCTQLAALQLGVLLKGCCCLAEEIFHLHSRHHGSLWQVLCSCFPPRWYLALLLVGGSAYLDPPEDNGHSPRLALTLSCLCQLLVLALGLQKLSAVEVSELTESSKKNVAHGLAWSYYIGYLKVVLPRLKECMEELSRTNPMLRAHRDTWKLHILVPLGCDIWDDLEKADSNIQYLADLPETILTRAGIKRRVYKHSLYVIRDKDNKLRPCVLEFASPLQTLCAMSQDDCAAFSREQRLEQARLFYRSLRDILGSSKECAGLYRLIAYEEPAEPESHFLSGLILWHLQQQQREEYMVQEELPLGTSSVELSLQVSSSDLPQPLRSDCP
stoichiometry N [1]: 2 | ratio of dimer to higher-order oligomers in the micrographs [2]: ~4 dimer : higher-order oligomers | stoichiometry N [2]: 4
